Assay results taken from article PMC6468240.

What was measured:
[1] = biological target: recombinant NgAgo-His (Natronobacterium gregoryi); test: SPR
[2] = biological target: recombinant E. coli recA, His-tagged (E. coli) (UniProt P0A7G6); test: SPR

Substance | Kd [1] [µM] | koff [1] [s⁻¹] | kon [1] [M⁻¹ s⁻¹] | Kd [2] [µM] | koff [2] [s⁻¹] | kon [2] [M⁻¹ s⁻¹]
recombinant E. coli recA, His-tagged (from UniProt P0A7G6 1-353) (natural protein) | 0.0424 | 0.00024 | 5740 |  |  | 
recombinant NgAgo-His (natural protein) |  |  |  | 0.0306 | 0.000707 | 23200
